The target in experiment [1] is T1, full-length hCDCP1 with N-terminal c-Myc tag (expression vector GS01), on Ba/F3-hCDCP1 cells or … (human, UniProt Q9H5V8 30-836).
T1 construct: also called human CDCP1; hCDCP1 forced expression cells
T1 sequence: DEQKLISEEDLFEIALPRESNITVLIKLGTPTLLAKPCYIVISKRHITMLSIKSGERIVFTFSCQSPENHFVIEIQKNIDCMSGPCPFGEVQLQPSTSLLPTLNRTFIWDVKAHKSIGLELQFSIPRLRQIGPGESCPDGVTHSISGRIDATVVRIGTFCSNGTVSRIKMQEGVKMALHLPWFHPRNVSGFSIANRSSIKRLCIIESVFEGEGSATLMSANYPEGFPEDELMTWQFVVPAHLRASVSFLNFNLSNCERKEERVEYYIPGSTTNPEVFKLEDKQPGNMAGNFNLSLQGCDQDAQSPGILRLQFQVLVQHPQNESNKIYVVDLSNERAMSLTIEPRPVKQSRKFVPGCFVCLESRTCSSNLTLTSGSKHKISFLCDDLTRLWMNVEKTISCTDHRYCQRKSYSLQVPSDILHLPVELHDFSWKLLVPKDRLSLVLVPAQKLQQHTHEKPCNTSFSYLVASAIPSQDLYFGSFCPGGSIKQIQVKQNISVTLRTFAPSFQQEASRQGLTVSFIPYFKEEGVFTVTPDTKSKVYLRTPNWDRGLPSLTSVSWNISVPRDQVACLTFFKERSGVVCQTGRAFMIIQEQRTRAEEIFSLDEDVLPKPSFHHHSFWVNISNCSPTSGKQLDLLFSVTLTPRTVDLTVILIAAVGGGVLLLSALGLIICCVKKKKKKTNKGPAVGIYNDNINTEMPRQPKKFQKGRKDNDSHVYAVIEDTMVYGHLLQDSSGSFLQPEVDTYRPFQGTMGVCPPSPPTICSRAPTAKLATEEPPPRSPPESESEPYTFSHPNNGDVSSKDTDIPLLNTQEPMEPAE
The experiment in a line: flow cytometry on Ba/F3-hCDCP1 cells. On the technique in general: Flow cytometry measures light scatter and fluorescence of single cells or particles in a stream.

Experiment [2] deals with T2, crab-eating macaque CDCP1 with N-terminal c-Myc tag (expression vector GS02), on crab-eating macaque … (crab-eating macaque (Macaca …, UniProt Q9H5V8 30-836 (human entry))).
T2 chain: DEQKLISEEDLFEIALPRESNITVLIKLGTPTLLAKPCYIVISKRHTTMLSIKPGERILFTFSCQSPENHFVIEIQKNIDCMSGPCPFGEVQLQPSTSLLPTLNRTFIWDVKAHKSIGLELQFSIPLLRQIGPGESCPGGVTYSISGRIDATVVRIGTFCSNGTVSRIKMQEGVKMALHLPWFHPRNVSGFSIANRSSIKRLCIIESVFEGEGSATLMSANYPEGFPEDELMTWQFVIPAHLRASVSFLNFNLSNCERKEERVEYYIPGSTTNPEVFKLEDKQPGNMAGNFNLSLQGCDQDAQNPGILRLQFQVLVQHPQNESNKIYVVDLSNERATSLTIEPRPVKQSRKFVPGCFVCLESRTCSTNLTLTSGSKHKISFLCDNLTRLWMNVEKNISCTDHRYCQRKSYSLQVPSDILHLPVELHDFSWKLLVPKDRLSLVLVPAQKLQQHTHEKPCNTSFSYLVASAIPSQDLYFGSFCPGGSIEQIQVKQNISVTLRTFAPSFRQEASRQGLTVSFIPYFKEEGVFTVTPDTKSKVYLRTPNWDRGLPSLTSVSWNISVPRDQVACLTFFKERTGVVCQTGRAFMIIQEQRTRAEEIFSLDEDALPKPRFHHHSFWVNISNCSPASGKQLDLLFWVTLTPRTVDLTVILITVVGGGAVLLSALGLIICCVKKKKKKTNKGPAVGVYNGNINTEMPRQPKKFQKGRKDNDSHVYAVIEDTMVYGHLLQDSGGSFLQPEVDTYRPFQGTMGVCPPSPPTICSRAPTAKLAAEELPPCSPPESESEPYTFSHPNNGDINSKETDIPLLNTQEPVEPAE
The experiment in a line: flow cytometry on crab-eating macaque CDCP1-expressing CHO-K1 cells. The source says:
The hCDCP1-expressing CHO-K1 cells and the crab-eating macaque CDCP1-expressing CHO-K1 cells were exfoliated and dispersed using 0.25% trypsin/EDTA (Nacalai Tesque, Inc.), and were then reacted with various concentrations of individual mouse-human chimeric antibodies, namely, mh12A041HCori/LCori, mh14A025HCori/LCori, mh14A043HCori/LCori, mh14A055, mh14A063HCori/LCori, and mh14A091. Thereafter, the binding property of the antibodies was observed by flow cytometry (FIG. 9). As a result, these 6 antibodies all reacted with the crab-eating macaque CDCP1, and in particular, the 5 antibodies other than mh14A055 reacted with both the human CDCP1 and the crab-eating macaque CDCP1 at the same levels.

In experiment [3] the target is T1, full-length hCDCP1 with N-terminal …. In words: flow cytometry on untreated Ba/F3-hCDCP1 cells (comparison of FIG. 8). The protocol: In order to investigate whether the obtained anti-hCDCP1 mouse-human chimeric antibodies bind to the N-terminal side of the serine protease cleavage site of the hCDCP1 molecules or bind to the transmembrane region side, […] the technique mentioned in the previous section. The following anti-hCDCP1 mouse-human chimeric antibody clones were evaluated: [0259] mh12A041HCori/LCori, mh14A025HCori/LCori, mh14A043HCori/LCori, mh14A055, mh14A063HCori/LCori, and mh14A091.
[…] It was confirmed by the same Western blotting as that mentioned in the previous section that the full-length hCDCP1 disappeared and only the cleaved hCDCP1 was present in the above-treated Ba/F3-CDCP1 cells. With respect to these cells, a dilution series of anti-hCDCP1 mouse-human chimeric antibodies from 5 μg/mL to 5 ng/mL was prepared, and was then reacted at 4° C. for 30 minutes. As a negative control, a similar dilution series of anti-RS virus antibodies described in the later section was prepared as a non-specific human IgG, and was then reacted at 4° C. for 30 minutes.

For experiment [4], the target named is T3, hCDCP1 expressed by PC3 cells and other human cancer cell lines (endogenous) (human, UniProt Q9H5V8 30-836).
T3 construct: Endogenous protein on cell lines; PC3 is said to express also the cleaved form; also called human CDCP1
T3 sequence: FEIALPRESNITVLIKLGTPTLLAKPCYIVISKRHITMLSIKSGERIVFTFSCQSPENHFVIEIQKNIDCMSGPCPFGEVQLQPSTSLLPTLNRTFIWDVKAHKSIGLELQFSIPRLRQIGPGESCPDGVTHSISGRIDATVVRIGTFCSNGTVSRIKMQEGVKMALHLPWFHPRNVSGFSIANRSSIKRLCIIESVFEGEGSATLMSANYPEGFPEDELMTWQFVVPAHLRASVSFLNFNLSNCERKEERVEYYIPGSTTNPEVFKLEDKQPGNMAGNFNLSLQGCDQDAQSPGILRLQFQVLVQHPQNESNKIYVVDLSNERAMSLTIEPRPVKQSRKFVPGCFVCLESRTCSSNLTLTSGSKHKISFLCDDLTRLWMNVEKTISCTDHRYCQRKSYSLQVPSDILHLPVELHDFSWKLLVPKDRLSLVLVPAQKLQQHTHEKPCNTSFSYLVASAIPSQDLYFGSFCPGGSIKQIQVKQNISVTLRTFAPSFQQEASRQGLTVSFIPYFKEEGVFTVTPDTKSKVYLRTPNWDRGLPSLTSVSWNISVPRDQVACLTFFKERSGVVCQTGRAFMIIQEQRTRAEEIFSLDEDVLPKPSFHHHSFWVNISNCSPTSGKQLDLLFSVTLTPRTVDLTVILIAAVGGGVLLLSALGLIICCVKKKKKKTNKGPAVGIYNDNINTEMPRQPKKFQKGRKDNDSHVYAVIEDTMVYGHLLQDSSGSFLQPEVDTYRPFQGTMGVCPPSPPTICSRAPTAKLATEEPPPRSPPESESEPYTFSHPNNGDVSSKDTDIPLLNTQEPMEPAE
The experiment in a line: cancer cells that express hCDCP1; method not given.

7 molecules from patent US20230050380A1 (CHIOME BIOSCIENCE, published 2023) can be followed below.

B1: mh14A063HCori/LCori (antibody, human IgG1, kappa, V domains shown)
VH: EVQLQESGGGLVQPGGSLKLSCAASGFTFSSYTMSWVRQTPEKRLEWVAYISNGGGSTYYPDTVKGRFTISRDNAKNTLYLQMSSLKSEDTAMYYCARYDLGFAYWGQGTLVTVSS
VL: NIVLTQSPASLAVSLGQRATISCRASESVDSYGNSFMHWYQQKPGQPPKLLIFLASNLESGVPARFSGSGSRTDFTLTIDPVEADDAATYYCQQNNEDPWTFGGGTNLEIKR
notes: mouse-human chimeric antibody, human IgG1/kappa constant regions; also called mh14A063HCori/LCori-biotin (biotinylated form)
Take B1: the binding result in experiment [1] and in experiment [2] was “binds” throughout.

B2: mh14A091 (antibody, human IgG1, kappa, V domains shown)
VH: EVQLQESGAELARPGASVKLSCKASGYTFTSYWMQWVKQRPGQGLEWIGAIYPGDGDTRYTQKFKGKATLTADKSSSTAYMQLSSLASEDSAVYYCAGYDAPWFAYWGQGTLVTVSS
VL: NIVLTQSPASLAVSLGQRATISCRASESVDSYGNSFMHWYQQKPGQPPKLLIYLASNLESGVPARFSGSGSRTDFTLTIDPVEADDAATYYCQQNNEDPWTFGGGTKLEIKR
notes: mouse-human chimeric antibody of 14A091, human IgG1/kappa constant regions
Turning to B2, the binding result in experiment [2] and in experiment [3] was “binds” each time.

B3: mh14A055 (antibody, human IgG1, kappa, V domains shown)
VH: EVQLQESGPGLVAPSQSLSITCTVSGFSLTGYGVNWVRQPPGKGLEWLGMIWGDGSTDYNSALKSRLSISKDNSKSQVFLKMNSLQTDDTARYYCARDGYDGAMDYWGQGTSVTVSS
VL: not shown
notes: mouse-human chimeric antibody of 14A055, human IgG1/kappa constant regions
Consider B3, for which the binding result in experiment [2] and in experiment [3] was “binds” throughout.

B4: mh14A025HCori/LCori (antibody, human IgG1, kappa, V domains shown)
VH: EVQLQESGAELVRPGALVKLSCKASGFNIKDYYMHWVKQRPEQGLEWIGWIDPENGNTIYDPKFQGKASITADTSSNTAYLQLSSLTSEDTAVYYCGGLLYAMDYWGQGTSVTVSS
VL: DIQMTQTTSSLSASLGDRVTISCRASQDISNYLNWYQQKPDGTVKLLIYFTSRLHSGVPSRFSGSGSGTDYSLTISNLEQEDIATYFCQQGNTLPRTFGGGTKLEIRR
notes: mouse-human chimeric antibody, human IgG1/kappa constant regions; also called mh14A025HCori/LCori-biotin (biotinylated form)
Regarding B4, the binding result in experiment [1] and in experiment [2] was “binds” in each case.

B5: 25A11 antibody (antibody, human IgG1, kappa, V domains shown)
VH: QVQLQQPGAELVKPGASVKMSCKASGYTFTSYYMYWVKQRPGQGLEWIGEINPSHGGTNFNEKFKNKATLTVDKSSSTVYMQLSSLTSEDSAVYYCTRGGNYPYFAMDYWGQGTSVTVSS
VL: DIQMTQTTSSLSASLGDRVTISCRASQDISNYLNWYQQKPDGTVKLLIYYTSRLHSGVPSRFSGSGSGTDYSLTISNLEQEDIATYFCQQGNTLPWTFGGGTKLEIKR
notes: also called 25A11 biotin; 25A11-biotin (biotinylated form)
Consider B5, for which the binding result in experiment [4] is listed as “binds”.

B6: mh14A043HCori/LCori (antibody, human IgG1, kappa, V domains shown)
VH: EVQLQESGAELVRPGALVKLSCKASGFNIKDYYMNWVKQRPEQGLEWIGWIDPENGNTIYDPKFQGKASITADTSSNTAYLQLSSLTSEDTAVYYCYGSSYRFTYWGQGTLVTVSS
VL: QIVLIQSPALMSASPGEKVTMTCSASSSVSYMYWYQQKPRSSPKPWIYLTSNLASGVPARFSGSGSGTSYSLTISSMEAEDAATYYCQQWSSNPFTFGSGTKLEIKR
notes: mouse-human chimeric antibody, human IgG1/kappa constant regions; also called mh14A043HCori/LCori-biotin (biotinylated form)
Consider B6, for which the binding result in experiment [1] and in experiment [2] was “binds” each time.

B7: CUB4 antibody (antibody, human IgG1, kappa, V domains shown)
VH: EVQLVESGGGLVQPGGSLRLSCAASGFTFNSYGMSWVRQAPGKGLEWVATISSGGSYKYYVDSVKGRFTISRDNAKNSLYLQMNSLRAEDTAVYYCARHPDYDGVWFAYWGQGTLVTVSS
VL: EIVLTQSPATLSLSPGERATMSCSVSSSVFYLHWYQQKPGQAPRLWIYDTSKLASGIPARFSGSGSGTDFTLTISSLEPEDFAVYYCQQWNSNPPTFGGGTKVEIKR
notes: also called CUB4-biotin (biotinylated form)
Consider B7, for which the binding result in experiment [4] was “binds”.
